Results from US20140349340A1, “MBTH-LIKE PROTEINS IN THE PRODUCTION OF SEMI SYNTHETIC ANTIBIOTICS” (DSM SINOCHEM PHARMACEUTICALS NETHERLANDS B.V., priority 2012, published 2014).

Legend:
Type in all cases: biochemical
[1] = PPi release assay, adenylation activity with L-hydroxyphenylglycine; conditions: substrate L-hydroxyphenylglycine
Description: (§1) These assays use inorganic pyrophosphatases to convert PPi produced during aminoacyl-AMP formation to orthophosphate (Pi). To measure Pi concentrations some of these assays use molybdate/malachite green reagent for colorimetric detection (McQuade et al. 2008) or, as used in the context of the present invention, a shift in absorbance maximum by conversion of 7-methyl-6-thioguanosine (MESG) by purine nucleoside phosphorylase (Ehmann D. E. et al. (Proc. Natl. Acad. Sci. (2000) 97, 2509-2514) or Daniel & Aldrich (Anal. Biochem. (2010) 404, 56-63)).
(§2) To determine the adenylation activity of the adenylation domains, the Enzchek® pyrophosphate assay kit (Life Technologies) was used as described by Ehmann D. E. et al. (Proc Nat Acad Science (2000) 97, 2509-2514) with small modifications. The reactions were performed 96 wells UV/Vis transparent plates (BD Falcon). The reaction mixture comprises 50 mM HEPES pH 8.0, 10 mM MgCl2, 5 mM ATP, 75 mM DTT, 0.03 U Inorganic Pyrophosphatase (IP), 1 U Purine Nucleoside Phosphorylase (PNP) and 0.2 mM MESG in a volume of 70 μl. Next 20 μl (around 0.5-2 μM final concentration) of purified A(T) domain, with or without co-purification of the MbtH like helper protein was added and the reaction was pre-incubated for 15 minutes at RT to reduce contaminating Pi. Following the pre-incubation, 10 μl of a 10 mM or 1 mM solution of the appropriate amino acid depending on the performed specificity determination was added to initiate the adenylation reaction and the absorbance at 360 nm was measured using a TECAN I Control spectrophotometer. Absorbance measurements were made every 5 to 10 min over a period of up to 240 min. A reaction with addition of 10 μl MilliQ water instead was used to determine and subtract the background absorbance. As substrates the following amino acids were used: D- or L-phenylalanine, D- or L-hydroxyphenylglycine, D- or L-phenylglycine, L-tryptophan, L-valine, L-cysteine, and L-leucine.

[2] = PPi release assay, adenylation activity with D-hydroxyphenylglycine; conditions: substrate D-hydroxyphenylglycine
Description: as §1, §2

[3] = PPi release assay, adenylation activity with L-phenylalanine; conditions: substrate L-phenylalanine
Description: as §1, §2

[4] = PPi release assay, adenylation activity with D-phenylalanine; conditions: substrate D-phenylalanine
Description: as §1, §2

[5] = PPi release assay, adenylation activity with L-leucine; conditions: substrate L-leucine; protein alone; data not shown
Description: as §1
(§3) To determine the adenylation activity of the adenylation domains, the Enzchek® pyrophosphate assay kit (Life Technologies) was used as described by Ehmann D. E. et al. (Proc Nat Acad Science (2000) 97, 2509-2514) with small modifications. The reactions were performed 96 wells UV/Vis transparent plates (BD Falcon). […] Following the pre-incubation, 10 μl of a 10 mM or 1 mM solution of the appropriate amino acid depending on the performed specificity determination was added to initiate the adenylation reaction and the absorbance at 360 nm was measured using a TECAN I Control spectrophotometer. Absorbance measurements were made every 5 to 10 min over a period of up to 240 min. A reaction with addition of 10 μl MilliQ water instead was used to determine and subtract the background absorbance. […]

[6] = PPi release assay, adenylation activity with L-valine; conditions: substrate L-valine; protein alone; data not shown
Description: as §1, §3

[7] = PPi release assay, adenylation activity with L-cysteine; conditions: substrate L-cysteine; protein alone; data not shown
Description: as §1, §3

[8] = PPi release assay, adenylation activity with L-tryptophan; conditions: substrate L-tryptophan; protein alone; data not shown
Description: as §1, §3

[9] = co-purified with MbtH-like protein Tcp13
[10] = protein alone, without MbtH-like protein

| Molecule | adenylation activity (absorption 360 nm, PPi release assay) [1, 9] | adenylation activity (absorption 360 nm, PPi release assay) [1, 10] | adenylation activity (absorption 360 nm, PPi release assay) [2, 9] | adenylation activity (absorption 360 nm, PPi release assay) [2, 10] | adenylation activity (absorption 360 nm, PPi release assay) [3, 9] | adenylation activity (absorption 360 nm, PPi release assay) [3, 10] | adenylation activity (absorption 360 nm, PPi release assay) [4, 9] | adenylation activity (absorption 360 nm, PPi release assay) [4, 10] | adenylation activity (PPi release assay) [5] | adenylation activity (PPi release assay) [6] | adenylation activity (PPi release assay) [7] | adenylation activity (PPi release assay) [8] |
| --- | --- | --- | --- | --- | --- | --- | --- | --- | --- | --- | --- | --- |
| StaC_M2_A: purified adenylation domain of StaC module M2 (SEQ ID NO: 8); Streptomyces toyocaensis (protein, listed as Streptomyces toyocaensis) LPVGRLGVTSDATRTSEVERWNATGEAAGGASVVELFRRRSAGTPDAVAVVDGDRTLSYGDLDRESDRLAGRLAETGVRRGDHVGVVLERGADLFVAFLAVWKAGAAYVPVHVDYPPVRIERMLADAGVTVAVCAEGTRNAVPDGLEPVPVDAPWAGETRHETPTVTARDAAYVMYTSGSTGEPKGIVVPHGSVAALAGDPGWALDADDCVLMHASHAFDASLFEIWAPLVRGARVMVAEPGAVDTQRLREAVARGVTTVHLTAGSFRVLAEESPGSFDGLREILTGGDVVPLASVAQLRRACPDVRVRHLYGPTETTLCGTWHLLEPGDEPGDVLPIGRPLAGRRAYVLDAFLQPVAPNVTGELYLAGVGLALGYLGARGATSERFVADPFVPGERMYRTGDLARRNDRGELLFAGRADAQVKIRGYRVEPTEIETVLAEAPQVAQTVVVAREDGPGEKRLIAYAIAEPDQVLDPEALREHLAARLPEFMVPAAVVVLDDFPLTINGKIDREALPAPEFSAKPAGREPRTEAERVLC | clear adenylation activity | No adenylation activity | clear adenylation activity | No adenylation activity | no activity | No adenylation activity | no activity | No adenylation activity |  |  |  |  |
| TycA: control protein; first one-module-bearing peptide synthetase for synthesis of tyrocidine by Bacillus brevis, phenylalanine-specific adenylation domain (protein, UniProt P09095 1-1088, looked up) Tyrocidine synthase 1: MLANQANLIDNKRELEQHALVPYAQGKSIHQLFEEQAEAFPDRVAIVFENRRLSYQELNRKANQLARALLEKGVQTDSIVGVMMEKSIENVIAILAVLKAGGAYVPIDIEYPRDRIQYILQDSQTKIVLTQKSVSQLVHDVGYSGEVVVLDEEQLDARETANLHQPSKPTDLAYVIYTSGTTGKPKGTMLEHKGIANLQSFFQNSFGVTEQDRIGLFASMSFDASVWEMFMALLSGASLYILSKQTIHDFAAFEHYLSENELTIITLPPTYLTHLTPERITSLRIMITAGSASSAPLVNKWKDKLRYINAYGPTETSICATIWEAPSNQLSVQSVPIGKPIQNTHIYIVNEDLQLLPTGSEGELCIGGVGLARGYWNRPDLTAEKFVDNPFVPGEKMYRTGDLAKWLTDGTIEFLGRIDHQVKIRGHRIELGEIESVLLAHEHITEAVVIAREDQHAGQYLCAYYISQQEATPAQLRDYAAQKLPAYMLPSYFVKLDKMPLTPNDKIDRKALPEPDLTANQSQAAYHPPRTETESILVSIWQNVLGIEKIGIRDNFYSLGGDSIQAIQVVARLHSYQLKLETKDLLNYPTIEQVALFVKSTTRKSDQGIIAGNVPLTPIQKWFFGKNFTNTGHWNQSSVLYRPEGFDPKVIQSVMDKIIEHHDALRMVYQHENGNVVQHNRGLGGQLYDFFSYNLTAQPDVQQAIEAETQRLHSSMNLQEGPLVKVALFQTLHGDHLFLAIHHLVVDGISWRILFEDLATGYAQALAGQAISLPEKTDSFQSWSQWLQEYANEADLLSEIPYWESLESQAKNVSLPKDYEVTDCKQKSVRNMRIRLHPEETEQLLKHANQAYQTEINDLLLAALGLAFAEWSKLAQIVIHLEGHGREDIIEQANVARTVGWFTSQYPVLLDLKQTAPLSDYIKLTKENMRKIPRKGIGYDILKHVTLPENRGSLSFRVQPEVTFNYLGQFDADMRTELFTRSPYSGGNTLGADGKNNLSPESEVYTALNITGLIEGGELVLTFSYSSEQYREESIQQLSQSYQKHLLAIIAHCTEKKEVERTPSDFSVKGLQMEEMDDIFELLANTLR |  | no adenylation activity |  | no adenylation activity |  | accepted as substrate |  | accepted as substrate | similarly recognized and adenylated | similarly recognized and adenylated | no adenylation activity | similarly recognized and adenylated |
| CepB_M2_A: purified adenylation domain of CepB (PCZA363.4) module M2 (SEQ ID NO: 4); Amycolatopsis orientalis (protein, listed as Amycolatopsis orientalis) LPVGRLGVTSEPARASVVERWNSTGEAANRTSVLELFRQQADASPDAVAVMDAARTLSYADLDRESDRLAGYLAAMGVRRGDRVGVVMERGTDLFVALLAVWKAGAAQVPVNVDYPAERIERMLADAGASVAVCLEATRKAVPDGVEPVVMDVPAIDGVRHEAPQVTVGAHDLAYVMYTSGSTGVPKGVAVPHGSVAALASDPGWSQGPDDCVLLHASHAFDASLVEIWVPLVNGSRVMVAEPGAVDAERLREAISRGVTTVHLTAGAFRAVAEESPDSFTGLREILTGGDAVPLASVVRMRRACPDVRVRQLYGPTEITLCATWHVIEPGAETGDTLPIGRPLAGRQAYVLDAFLQPVAPNVTGELYIAGAGLAHGYLGNNGSTSERFIANPFASGERMYRTGDLARWTDQGELLFAGRADSQVKIRGYRVEPGEIEVALTEVPHVAQAVVVAREDHPGDKRLIAYVTAEEGPALAADAVREHLAARMPEFMVPAVVLVLDSFPLTLNGKIDRAALPAPEFTGKAAGREPRTETERVLC | clear adenylation activity | No adenylation activity | clear adenylation activity | No adenylation activity | no activity | No adenylation activity | no activity | No adenylation activity |  |  |  |  |
| BpsB_M2_A: purified adenylation domain of BpsB module M2 (SEQ ID NO: 5); Amycolatopsis balhimycina (protein, listed as Amycolatopsis balhimycina) VGRLGVTSEPTRAAVVERWNSTGEAAAETSVLELFRRQAGASPDAVAVVAGERTLSYADLDRESDRLAGHLAGIGVGRGDRVGVVMTRGADLFVALLGVWKAGAAQVPVNVDYPAERIERMLADVGASVAVCVEATRKAVPDGVEPVVVDLPVIGGVRPEAPPVTVGAHDVAYVMYTSGSTGVPKAVAVPHGSVAALASDPGWSQGPGDCVLLHASHAFDASLVEIWVPLVSGARVLVAEPGTVDAERLREAVSRGVTTVHLTAGAFRAVAEESPDSFIGLREILTGGDAVPLASVVRMRQACPDVRVRQLYGPTEITLCATWLVLEPGAATGDVLPIGRPLAGRQAYVLDAFLQPVAPNVTGELYLAGAGLAHGYLGNTAATSERFVANPFSGGGRMYRTGDLARWTDQGELVFAGRADSQVKIRGYRVEPGEVEVALTEVPHVAQAVVVAREGQPGEKRLIAYVTAEAGSALESAAVRAHLATRLPEFMVPSVVVVLESFPLTLNGKIDRAALPAPEFAGKAAGREPRTEAERVLCG | clear adenylation activity | No adenylation activity | clear adenylation activity | No adenylation activity | no activity | No adenylation activity | no activity | No adenylation activity |  |  |  |  |
